Values of other authors, collected in patent publication US6468959B1, “Peroral dosage form for peptide containing medicaments, in particular insulin” (ALFATEC-Pharm GmbH, priority 1991, dated 2002).

Settings: weakly acid environments of pH 3 to 4 and at pH 7 to 8

In the case of insulin, the solubility is given as “soluble” and the stability is given as “adequately stable”.
